Measured values published in the supplement of paper PMC10065799, “High-throughput profiling of sequence recognition by tyrosine kinases and SH2 domains using bacterial peptide display” (eLife, 2023).

Experiments:
AncSZ = test: phosphorylation enrichment, bacterial display (enrichment ratio); higher = better substrate or ligand; peptides without Tyr show the background
EPHB1 = EPHB1 (UniProt P54762); test: as above
EPHB2 = EPHB2 (UniProt P29323); test: as above
FGFR1 = FGFR1 (UniProt P11362); test: as above
FGFR3 = FGFR3 (UniProt P22607); test: as above
Chain of FGFR3 (P22607 whole entry, looked up): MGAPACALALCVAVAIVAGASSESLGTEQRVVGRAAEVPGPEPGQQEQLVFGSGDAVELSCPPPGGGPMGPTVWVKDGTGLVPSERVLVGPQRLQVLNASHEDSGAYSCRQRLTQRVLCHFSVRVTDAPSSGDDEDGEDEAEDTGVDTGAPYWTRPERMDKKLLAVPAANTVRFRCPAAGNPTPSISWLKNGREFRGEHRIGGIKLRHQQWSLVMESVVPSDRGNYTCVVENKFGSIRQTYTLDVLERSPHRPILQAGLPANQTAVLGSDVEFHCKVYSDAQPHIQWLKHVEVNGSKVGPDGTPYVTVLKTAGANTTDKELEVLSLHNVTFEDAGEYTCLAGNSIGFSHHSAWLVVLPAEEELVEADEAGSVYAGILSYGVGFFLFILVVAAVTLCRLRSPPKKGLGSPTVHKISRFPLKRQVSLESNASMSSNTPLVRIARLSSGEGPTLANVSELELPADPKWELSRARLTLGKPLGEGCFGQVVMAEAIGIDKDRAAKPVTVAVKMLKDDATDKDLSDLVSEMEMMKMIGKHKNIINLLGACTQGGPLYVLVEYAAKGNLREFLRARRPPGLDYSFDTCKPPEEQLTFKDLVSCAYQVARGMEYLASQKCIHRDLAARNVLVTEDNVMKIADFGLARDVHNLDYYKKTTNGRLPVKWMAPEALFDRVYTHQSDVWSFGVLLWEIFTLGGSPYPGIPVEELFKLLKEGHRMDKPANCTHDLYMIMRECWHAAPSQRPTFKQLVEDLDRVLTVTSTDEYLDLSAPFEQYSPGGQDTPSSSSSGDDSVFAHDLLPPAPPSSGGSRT

Fer (mouse) = test: as above
Fes = Fes (UniProt P07332); test: as above
Chain of Fes (P07332 whole entry, looked up): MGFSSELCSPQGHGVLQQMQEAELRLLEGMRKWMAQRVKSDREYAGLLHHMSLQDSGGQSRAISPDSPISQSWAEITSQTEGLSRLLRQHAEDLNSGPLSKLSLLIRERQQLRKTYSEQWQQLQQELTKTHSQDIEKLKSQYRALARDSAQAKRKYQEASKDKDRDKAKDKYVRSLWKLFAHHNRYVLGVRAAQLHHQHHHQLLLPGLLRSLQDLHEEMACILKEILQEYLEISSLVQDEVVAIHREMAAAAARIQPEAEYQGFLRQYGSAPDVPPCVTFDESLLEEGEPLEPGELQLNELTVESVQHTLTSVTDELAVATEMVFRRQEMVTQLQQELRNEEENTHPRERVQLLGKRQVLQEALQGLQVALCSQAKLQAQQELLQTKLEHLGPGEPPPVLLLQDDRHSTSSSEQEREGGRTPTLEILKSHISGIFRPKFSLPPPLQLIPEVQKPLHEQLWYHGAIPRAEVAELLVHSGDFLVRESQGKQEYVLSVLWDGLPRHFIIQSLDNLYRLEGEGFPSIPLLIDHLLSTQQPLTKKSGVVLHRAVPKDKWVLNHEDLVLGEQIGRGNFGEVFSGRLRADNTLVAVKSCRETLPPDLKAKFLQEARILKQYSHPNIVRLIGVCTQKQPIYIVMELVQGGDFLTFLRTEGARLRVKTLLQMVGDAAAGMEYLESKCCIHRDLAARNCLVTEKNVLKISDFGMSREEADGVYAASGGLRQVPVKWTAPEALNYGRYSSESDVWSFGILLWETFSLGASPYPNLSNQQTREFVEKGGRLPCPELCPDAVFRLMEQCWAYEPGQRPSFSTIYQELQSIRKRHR

Fyn = Fyn (UniProt P06241); test: as above
Hck = Hck (UniProt P08631); test: as above
Chain of Hck (P08631 whole entry, looked up): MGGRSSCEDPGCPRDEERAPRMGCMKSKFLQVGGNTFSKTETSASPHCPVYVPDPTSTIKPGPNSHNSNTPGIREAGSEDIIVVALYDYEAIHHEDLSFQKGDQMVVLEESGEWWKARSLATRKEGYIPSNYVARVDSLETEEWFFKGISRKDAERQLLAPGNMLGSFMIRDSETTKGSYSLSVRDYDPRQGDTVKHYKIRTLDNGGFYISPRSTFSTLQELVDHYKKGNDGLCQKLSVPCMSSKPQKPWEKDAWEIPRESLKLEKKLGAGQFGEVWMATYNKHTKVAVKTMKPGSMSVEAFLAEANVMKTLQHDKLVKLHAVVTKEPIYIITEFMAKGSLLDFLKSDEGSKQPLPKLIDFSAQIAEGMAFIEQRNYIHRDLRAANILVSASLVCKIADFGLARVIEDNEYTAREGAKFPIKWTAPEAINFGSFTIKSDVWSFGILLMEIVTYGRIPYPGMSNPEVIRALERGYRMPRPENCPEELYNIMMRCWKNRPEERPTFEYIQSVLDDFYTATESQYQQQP

Jak2 = Jak2 (UniProt O60674); test: as above
Chain of Jak2 (O60674 whole entry, looked up): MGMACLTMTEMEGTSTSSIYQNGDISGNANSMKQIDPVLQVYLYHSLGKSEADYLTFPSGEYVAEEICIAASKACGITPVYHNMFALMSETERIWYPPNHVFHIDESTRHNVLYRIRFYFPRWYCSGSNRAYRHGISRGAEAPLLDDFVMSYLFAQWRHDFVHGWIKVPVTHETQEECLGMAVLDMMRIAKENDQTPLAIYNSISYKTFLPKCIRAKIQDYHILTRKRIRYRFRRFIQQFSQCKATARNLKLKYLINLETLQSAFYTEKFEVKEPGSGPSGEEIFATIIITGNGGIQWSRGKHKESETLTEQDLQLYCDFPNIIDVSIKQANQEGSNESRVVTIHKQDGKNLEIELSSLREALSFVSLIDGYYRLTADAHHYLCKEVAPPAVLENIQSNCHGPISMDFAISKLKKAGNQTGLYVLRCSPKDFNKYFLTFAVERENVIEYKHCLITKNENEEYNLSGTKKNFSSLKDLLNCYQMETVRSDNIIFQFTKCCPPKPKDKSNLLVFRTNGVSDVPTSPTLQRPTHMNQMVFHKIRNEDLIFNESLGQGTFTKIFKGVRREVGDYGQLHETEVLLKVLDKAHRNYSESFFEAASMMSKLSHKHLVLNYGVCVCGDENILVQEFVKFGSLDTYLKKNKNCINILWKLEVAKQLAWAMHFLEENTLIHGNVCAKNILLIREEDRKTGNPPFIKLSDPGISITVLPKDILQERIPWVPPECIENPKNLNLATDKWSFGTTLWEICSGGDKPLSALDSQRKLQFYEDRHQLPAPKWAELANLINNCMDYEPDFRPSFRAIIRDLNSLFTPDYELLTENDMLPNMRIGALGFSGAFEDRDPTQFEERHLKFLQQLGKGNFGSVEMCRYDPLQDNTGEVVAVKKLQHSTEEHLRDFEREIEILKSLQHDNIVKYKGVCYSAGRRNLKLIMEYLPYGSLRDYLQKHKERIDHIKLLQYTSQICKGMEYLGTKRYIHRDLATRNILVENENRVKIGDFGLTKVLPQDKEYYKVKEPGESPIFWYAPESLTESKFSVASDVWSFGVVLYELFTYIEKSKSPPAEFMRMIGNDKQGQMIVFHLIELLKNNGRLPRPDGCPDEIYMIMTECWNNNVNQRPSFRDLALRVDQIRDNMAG

MERTK = MERTK (UniProt Q12866); test: as above
c-Abl (mouse) = test: as above
c-Src = test: as above
Grb2 SH2 = Grb2 SH2 (UniProt P62993); test: SH2 binding enrichment of the phosphorylated peptide, bacterial display (enrichment ratio); higher = better substrate or ligand; peptides without Tyr show the background
Chain of Grb2 SH2 (P62993 whole entry, looked up): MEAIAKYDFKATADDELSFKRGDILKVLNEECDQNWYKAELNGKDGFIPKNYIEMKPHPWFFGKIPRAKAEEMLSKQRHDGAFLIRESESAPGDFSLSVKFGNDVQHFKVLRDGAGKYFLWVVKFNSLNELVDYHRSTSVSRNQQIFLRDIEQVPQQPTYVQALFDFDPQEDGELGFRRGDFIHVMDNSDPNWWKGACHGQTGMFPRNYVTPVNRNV

SHP2-C SH2 = test: as above
c-Src SH2 = test: as above
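Throughout, for SH2 binding enrichment of the phosphorylated peptide, bacterial display: peptide library displayed on the E. coli surface as eCPX fusions, selected cells deep-sequenced, score is each peptide's frequency after selection divided by its frequency in the input.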
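Throughout, for phosphorylation enrichment, bacterial display: 11-residue human phosphosite peptides and single-mutation variants displayed on the E. coli surface, counted by deep sequencing, each peptide's frequency after selection divided by its frequency in the unselected input library; frequency after pTyr selection over input frequency; kinase dosed for 20-30% of maximal phosphorylation in three min.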

Chain of EPHB2 (P29323 whole entry, looked up): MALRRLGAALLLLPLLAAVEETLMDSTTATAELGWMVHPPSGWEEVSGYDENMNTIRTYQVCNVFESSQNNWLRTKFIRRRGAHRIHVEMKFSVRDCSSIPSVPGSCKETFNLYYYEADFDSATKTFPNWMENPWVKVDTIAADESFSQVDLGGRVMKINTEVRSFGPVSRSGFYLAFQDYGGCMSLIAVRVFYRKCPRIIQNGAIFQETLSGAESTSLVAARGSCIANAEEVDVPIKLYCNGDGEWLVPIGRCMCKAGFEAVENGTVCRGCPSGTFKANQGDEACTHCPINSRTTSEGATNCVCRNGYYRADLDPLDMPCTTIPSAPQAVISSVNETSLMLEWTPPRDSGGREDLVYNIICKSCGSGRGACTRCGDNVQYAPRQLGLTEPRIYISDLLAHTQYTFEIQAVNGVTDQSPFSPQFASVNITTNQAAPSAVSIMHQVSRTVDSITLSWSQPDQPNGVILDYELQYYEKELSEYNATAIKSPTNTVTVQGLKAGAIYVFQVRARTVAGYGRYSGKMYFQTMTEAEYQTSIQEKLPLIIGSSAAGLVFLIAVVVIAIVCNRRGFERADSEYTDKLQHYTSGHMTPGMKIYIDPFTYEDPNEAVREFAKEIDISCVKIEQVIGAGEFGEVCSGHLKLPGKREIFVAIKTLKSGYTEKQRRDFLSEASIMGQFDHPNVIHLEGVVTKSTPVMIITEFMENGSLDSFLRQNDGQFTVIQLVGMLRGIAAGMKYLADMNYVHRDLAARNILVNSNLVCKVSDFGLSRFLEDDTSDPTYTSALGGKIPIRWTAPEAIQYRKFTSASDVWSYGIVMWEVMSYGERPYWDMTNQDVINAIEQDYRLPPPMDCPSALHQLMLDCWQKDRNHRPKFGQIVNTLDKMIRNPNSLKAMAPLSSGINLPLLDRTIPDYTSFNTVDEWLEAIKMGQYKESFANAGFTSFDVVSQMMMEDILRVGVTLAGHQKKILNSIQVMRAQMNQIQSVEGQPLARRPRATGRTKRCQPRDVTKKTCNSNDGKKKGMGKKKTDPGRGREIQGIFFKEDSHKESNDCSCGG

Row | Sequence | phosphorylation enrichment (AncSZ) | phosphorylation enrichment (EPHB1) | phosphorylation enrichment (EPHB2) | phosphorylation enrichment (FGFR1) | phosphorylation enrichment (FGFR3) | phosphorylation enrichment (Fer (mouse)) | phosphorylation enrichment (Fes) | phosphorylation enrichment (Fyn) | phosphorylation enrichment (Hck) | phosphorylation enrichment (Jak2) | phosphorylation enrichment (MERTK) | phosphorylation enrichment (c-Abl (mouse)) | phosphorylation enrichment (c-Src) | SH2 binding enrichment (Grb2 SH2) | SH2 binding enrichment (SHP2-C SH2) | SH2 binding enrichment (c-Src SH2)
1 | SVMAEYGLFRA [VSX2_Y219_G223R_YF] | 0.77 | 0.481 | 0.513 | 0.514 | 0.538 | 0.513 | 0.661 | 6.8 | 5.72 | 0.505 | 0.51 | 0.589 | 6.04 | 0.773 | 0.627 | 0.444
2 | SVMAEYGLYAA [VSX2_Y219_G223A] | 0.997 | 3.29 | 8.04 | 0.654 | 0.632 | 5.85 | 0.798 | 7.34 | 7.6 | 0.579 | 2.4 | 0.799 | 5.12 | 0.838 | 0.776 | 0.511
3 | SVNCTYSPALN [TP53_Y126_T123N] | 0.957 | 0.654 | 0.613 | 0.484 | 0.725 | 0.521 | 1.01 | 0.735 | 0.851 | 0.77 | 0.478 | 0.622 | 0.849 | 0.722 | 0.544 | 0.381
4 | SVTCTYPPALN [TP53_Y126_S127P] | 0.886 | 0.471 | 0.578 | 0.502 | 0.578 | 0.473 | 0.873 | 0.448 | 0.557 | 1.07 | 0.477 | 0.97 | 0.485 | 0.865 | 0.617 | 0.448
5 | SVTCTYSLALN [TP53_Y126_P128L] | 1.21 | 0.688 | 0.6 | 0.653 | 0.802 | 0.558 | 1.38 | 0.78 | 0.628 | 1.13 | 0.614 | 0.951 | 1.65 | 0.956 | 0.781 | 0.503
6 | SVTWTYSPALN [TP53_Y126_C124W] | 1.31 | 0.569 | 0.786 | 0.461 | 0.862 | 0.532 | 1.11 | 0.387 | 0.467 | 0.986 | 0.289 | 0.698 | 0.347 | 0.567 | 0.492 | 0.319
7 | SVVVPYDPPEV [TP53_Y220_E221D] | 1.02 | 0.543 | 0.51 | 0.56 | 0.711 | 0.465 | 1.08 | 0.48 | 0.488 | 1.01 | 0.373 | 0.629 | 0.499 | 0.684 | 0.827 | 0.855
8 | SWSTSYSGFRF [NKAPL_Y91_YF] | 1.17 | 0.588 | 0.663 | 0.637 | 0.719 | 1.61 | 1.38 | 0.739 | 0.858 | 0.821 | 0.535 | 0.728 | 1.69 | 1.13 | 1.55 | 0.774
9 | SWSTSYSGYRY [NKAPL_Y91] | 0.825 | 0.596 | 0.619 | 0.707 | 0.656 | 0.591 | 0.925 | 0.706 | 0.701 | 0.741 | 0.461 | 0.652 | 1.7 | 1.17 | 1.88 | 1.03
10 | SYCYRYCCAAR [SUMF1_Y344_R345C] | 0.968 | 0.392 | 0.553 | 0.47 | 0.769 | 0.457 | 0.976 | 0.43 | 0.497 | 0.679 | 0.437 | 0.622 | 0.369 | 1.13 | 0.627 | 0.931
11 | SYCYRYRCAAQ [SUMF1_Y344_R349Q] | 0.768 | 0.382 | 0.424 | 0.499 | 0.464 | 0.346 | 0.599 | 0.419 | 0.5 | 0.599 | 0.515 | 0.471 | 0.399 | 1.42 | 1.43 | 1.5
12 | SYTDPYAQPPL [KMT2D_Y2378] | 0.927 | 0.591 | 0.482 | 3.08 | 2.16 | 0.489 | 0.902 | 0.496 | 0.473 | 0.681 | 0.52 | 0.666 | 0.587 | 0.91 | 0.661 | 1.02
13 | TAALWYIFLHT [ENG_Y612_S615L_YF] | 1.32 | 0.832 | 0.939 | 0.845 | 1.2 | 0.577 | 1.86 | 0.555 | 0.689 | 1.48 | 0.555 | 1.24 | 0.508 | 0.98 | 1.09 | 0.593
14 | TAGFIYEKWEI [TEC_Y360_S359I] | 1.45 | 1.35 | 1.45 | 0.474 | 0.804 | 11.6 | 1.72 | 2.78 | 3.79 | 1.24 | 4.47 | 1.12 | 4.11 | 0.794 | 1.24 | 0.761
15 | TALFIYIRPKA [OR10C1_Y258] | 1.23 | 0.406 | 0.697 | 0.556 | 0.712 | 0.508 | 1.22 | 0.55 | 0.523 | 0.945 | 0.388 | 0.624 | 0.304 | 0.891 | 0.721 | 0.494
16 | TDLAYYLVCKG [ASL_Y376_R379C] | 1.46 | 0.883 | 0.66 | 2.39 | 2.33 | 0.581 | 1.57 | 0.689 | 0.75 | 1.74 | 0.79 | 0.903 | 0.825 | 0.959 | 0.829 | 0.461
17 | TEFIQYMRRKN [MAX_Y73_YF] | 0.701 | 0.44 | 0.732 | 0.367 | 0.486 | 0.51 | 0.629 | 0.547 | 0.458 | 0.594 | 0.472 | 0.404 | 0.521 | 0.675 | 0.54 | 0.387
